Experimental findings from patent publication US20220204930A1 (KITE PHARMA, published 2022) are described below.

The target of assay [1] is T1, recombinant PSMA (rPSMA) containing a 6x His tag (human, UniProt Q04609 44-750).
T1 construct: Soluble staining reagent, detected with an anti-His antibody; also called prostate-specific membrane antigen
In words: flow cytometry, rPSMA-6xHis + anti-His; synNotch/CAR-payload T cells without myc beads (CAR not induced); donor #1.

The target in assay [2] is T1, recombinant PSMA (rPSMA) containing a …. In words: flow cytometry, rPSMA-6xHis + anti-His; synNotch/CAR-payload T cells without myc beads (CAR not induced); donor #3. On the procedure: (§1) Seven days after transduction, T cells transduced as described in example 1 were harvested to determine transduction efficiencies. 1.5×10⁵ T cells were plated in 96 well plates in duplicate. For canonical CAR T cells, T cells were cultured overnight in hTCM (human T cell media), that included of x-vivo 15 (Lonza (Basel, Switzerland)), 5% human serum (Valley Biomedical (Winchester, Va.)), and 1% Glutamax (Gibco). For synNotch T receptor expressing cells, the T cells were cultured in the presence and absence of myc beads overnight to stimulate the synNotch receptor and therebyinduce CAR expression. After overnight culture, CAR expression was measured using recombinant PSMA (rPSMA) containing a 6× His tag (SEQ ID NO: 260). The cells were stained with an anti-His antibody and the stained cells were detected via flow cytometry. Only cells bound by the rPSMA (and anti-His) are detected to measure expression.

Assay [3] has the same target. Put plainly: flow cytometry of canonical CAR T cells stained with rPSMA-6xHis and anti-His; donor #1. On the procedure: as §1

T1 sequence (Q04609 other isoform, or with tags, fused parts or gaps limits assumed): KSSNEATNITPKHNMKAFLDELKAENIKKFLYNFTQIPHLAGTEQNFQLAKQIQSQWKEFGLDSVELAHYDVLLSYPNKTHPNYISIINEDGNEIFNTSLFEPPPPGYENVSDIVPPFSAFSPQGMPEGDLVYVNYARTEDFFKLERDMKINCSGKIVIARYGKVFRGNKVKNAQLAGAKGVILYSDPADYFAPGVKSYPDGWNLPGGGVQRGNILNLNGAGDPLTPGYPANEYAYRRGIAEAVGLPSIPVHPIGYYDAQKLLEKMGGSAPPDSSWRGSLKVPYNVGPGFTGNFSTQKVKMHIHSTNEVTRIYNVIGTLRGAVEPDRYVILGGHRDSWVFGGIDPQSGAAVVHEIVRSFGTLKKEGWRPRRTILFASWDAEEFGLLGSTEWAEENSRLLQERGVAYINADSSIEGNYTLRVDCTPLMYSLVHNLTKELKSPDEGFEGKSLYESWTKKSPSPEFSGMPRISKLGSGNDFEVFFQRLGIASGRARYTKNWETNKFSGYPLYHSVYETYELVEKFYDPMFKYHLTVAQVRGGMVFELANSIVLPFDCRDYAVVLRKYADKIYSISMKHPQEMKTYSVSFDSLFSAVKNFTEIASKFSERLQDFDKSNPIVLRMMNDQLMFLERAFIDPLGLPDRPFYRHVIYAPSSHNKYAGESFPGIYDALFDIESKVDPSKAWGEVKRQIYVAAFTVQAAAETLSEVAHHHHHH

B1: anti-PSMA CAR with Ab3 scFv (other)
chain: EVQLVESGGGLVQPGGSMRLSCAASGFTFSDYYMAWVRQAPGKGLEWVANINYDGTSTYYADSLKGRFTISRDSSKNTLYLQMNSLRAEDTAVYYCARALDGYYGYLDVWGQGTTVTVSSGSTSGSGKPGSGEGSTKGDIQLTQSPSSLSASVGDRVTLTCRASQSISNNLHWYQQKPGKAPKLLIKYVSQSISGIPSRFSGSGLGTDFTLTISSVQPEDFATYYCQQSNSWPYTFGQGTKLEIK
notes: Chimeric antigen receptor on the surface of transduced human T cells; Constructs 103 (constitutive) and 203 (inducible payload) are treated as the same CAR protein; also called construct 103; construct 203; not shown: CD8a hinge, CD8a transmembrane, 4-1BB and CD3zeta domains
B1: the “% CAR+ (Unstimulated)” value turned out to be 3.2% in assay [1] and 4.6% in assay [2].

B2: anti-PSMA CAR with Ab2 scFv (other)
chain: DIQMTQSPSSLSASVGDRVTVTCRASQNVNTNVAWYQQKPGKAPKVLIYSASYRNSGVPSRFSGSGSGTDFTLTISSVQPEDFATYYCQQYNSYPFTFGQGTKLEIKGSTSGSGKPGSGEGSTKGQVQLVQSGAEVKKPGASVKLSCKASGYTFTTYWMHWVRQAPGQGLEWIGMIHPNSGSTNYAQKFQGRATLTVDTSTSTAYMELSSLRSEDTAVYYCARDPYDYGEDFDVWGQGTTVTVSS
notes: Chimeric antigen receptor on the surface of transduced human T cells, expressed from the GAL4-inducible payload vector; also called construct 202; Ab6 SynNotch/202; not shown: CD8a hinge, CD8a transmembrane, 4-1BB and CD3zeta domains
For B2, the “% CAR+ (Unstimulated)” value in assay [2] was found to be 1.4%.

B3: anti-PSMA CAR with Ab1 scFv (other)
chain: DIQLTQSPSSLSASVGDRVTITCRASSSVSHIYWYQQKPGKAPKPWIYRTSNLASGVPSRFSGSGSGTDYTLTISSLQPEDFATYYCQQYHTYPPTFGQGTKLEIKGSTSGSGKPGSGEGSTKGEVQLVESGGGLVQPGGSMRLSCAASGFTFSDYYMAWVRQAPGKGLEWIANINYDGSNTYYADSLKGRFTISRDNSKNTLYLQMNSLRAEDTAVYYCARNWDGYYGYFDVWGQGTTVTVSS
notes: Chimeric antigen receptor on the surface of transduced human T cells; Construct 101 is the constitutive EF1a vector and 201 the GAL4-inducible payload vector; also called Abl; construct 101; not shown: CD8a hinge, CD8a transmembrane, 4-1BB and CD3zeta domains
On to B3, for which the figures for the “% CAR+ (Unstimulated)” value in assay [1] and in assay [2] were 3.7% and 6.2%, respectively. For the same molecule, the “% CAR+” value in assay [3] came to 95.4%.
